Paper PMC8017132

Tests used:
[1] = molecular target: activated coagulation factor XI (UniProt P03951); experiment: stoichiometry of inhibition titration (residual protease activity); varying ratios of AAT variant to protease incubated at ambient temperature for 2 h, residual activity determined at 37°C, line regressed to zero residual activity
activated protein C = activated protein C (UniProt P04070); experiment: inhibition kinetics (residual protease activity on chromogenic substrate); pseudo-first-order, at least a 10:1 molar ratio of AAT variant to protease (5–75 nM), 37°C, discontinuous method; k2 = kobs divided by the initial AAT variant concentration
factor XIIa = factor XIIa (UniProt P00748); experiment: as above
[2] = molecular target: activated coagulation factor XI (UniProt P03951); experiment: as above
thrombin = thrombin (UniProt P00734); experiment: as above

Chain of UniProt P03951 (P03951 19-387, chain 1 of 2): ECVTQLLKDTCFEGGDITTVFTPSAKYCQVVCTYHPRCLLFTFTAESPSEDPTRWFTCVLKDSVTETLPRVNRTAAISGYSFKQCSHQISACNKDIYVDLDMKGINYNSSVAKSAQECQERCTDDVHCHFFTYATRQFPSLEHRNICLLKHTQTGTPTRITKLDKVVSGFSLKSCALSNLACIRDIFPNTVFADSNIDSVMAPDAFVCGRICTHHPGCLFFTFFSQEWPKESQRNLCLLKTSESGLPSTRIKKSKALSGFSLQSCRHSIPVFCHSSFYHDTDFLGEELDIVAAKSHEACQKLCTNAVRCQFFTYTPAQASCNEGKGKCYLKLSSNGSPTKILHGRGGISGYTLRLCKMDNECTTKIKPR
Chain of UniProt P03951 (P03951 388-624, chain 2 of 2): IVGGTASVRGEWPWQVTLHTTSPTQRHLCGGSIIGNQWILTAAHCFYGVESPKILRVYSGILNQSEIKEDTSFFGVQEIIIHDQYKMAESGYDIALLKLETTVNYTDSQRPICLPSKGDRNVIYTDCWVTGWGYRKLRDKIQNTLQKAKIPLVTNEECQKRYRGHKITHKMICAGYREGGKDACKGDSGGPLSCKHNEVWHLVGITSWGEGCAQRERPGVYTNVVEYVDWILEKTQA

SI (stoichiometry of inhibition) [1]: 2.7 | k2 (second-order rate constant of inhibition) (activated protein C): 25000 M⁻¹ s⁻¹ | k2 (second-order rate constant of inhibition) (factor XIIa): 23000 M⁻¹ s⁻¹ | k2 (second-order rate constant of inhibition) [2]: 140000 M⁻¹ s⁻¹ | k2 (second-order rate constant of inhibition) (thrombin): 180000 M⁻¹ s⁻¹
Substance: alpha-1 antitrypsin M358R (from UniProt P01009 25-418) (natural protein)
